Columns and labels:
Experiment in all cases: cell-based or functional assay
[1] = target: HIV-1 Env of pseudovirus Q769.d22 (HIV-1)
[2] = target: HIV-1 Env of pseudovirus P1981_C5_3 (HIV-1)
[3] = target: HIV-1 Env of pseudovirus SC422661.8 (HIV-1)
[4] = target: HIV-1 Env of pseudovirus Ce2010_F5 (HIV-1)
[5] = target: HIV-1 Env of pseudovirus 6545.v4.c1 (HIV-1)
[6] = target: HIV-1 Env of pseudovirus R2184.c04 (HIV-1)
[7] = target: HIV-1 Env of pseudovirus CAP210.2.00.E8 (HIV-1)
[8] = target: HIV-1 Env of pseudovirus C2101.c01 (HIV-1)
[9] = target: HIV-1 Env of pseudovirus HIV-16055-2.3 (HIV-1)
[10] = target: HIV-1 Env of pseudovirus Ce0393_C3 (HIV-1)
[11] = target: HIV-1 Env of pseudovirus CNE58 (HIV-1)
[12] = target: HIV-1 Env of pseudovirus Ce1086_B2 (HIV-1)
[13] = target: HIV-1 Env of pseudovirus ZM109F.PB4 (HIV-1)
[14] = target: HIV-1 Env of pseudovirus 249M B10 (HIV-1)
[15] = target: HIV-1 Env of pseudovirus TRJO4551.58 (HIV-1)
[16] = target: HIV-1 Env of pseudovirus BJOX025000.01.1 (HIV-1)
[17] = target: HIV-1 Env of pseudovirus CNE19 (HIV-1)
[18] = target: HIV-1 Env of pseudovirus BJOX015000.11.5 (HIV-1)
[19] = target: HIV-1 Env of pseudovirus 62357_14_D3_4589 (HIV-1)
[20] = target: HIV-1 Env of pseudovirus 6811.v7.c18 (HIV-1)
[21] = target: HIV-1 Env of pseudovirus 9004SS_A3_4 (HIV-1)
[22] = target: HIV-1 Env of pseudovirus 231965.c01 (HIV-1)
[23] = target: HIV-1 Env of pseudovirus 1056_10_TA11_1826 (HIV-1)
[24] = target: HIV-1 Env of pseudovirus ZM197M.PB7 (HIV-1)
[25] = target: HIV-1 Env of pseudovirus WITO4160.33 (HIV-1)
[26] = target: HIV-1 Env of pseudovirus ZM53M.PB12 (HIV-1)
[27] = target: HIV-1 Env of pseudovirus C3347.c11 (HIV-1)
[28] = target: HIV-1 Env of pseudovirus 6480.v4.c25 (HIV-1)
[29] = target: HIV-1 Env of pseudovirus 3365.v2.c2 (HIV-1)
[30] = target: HIV-1 Env of pseudovirus ZM249M.PL1 (HIV-1)
[31] = target: HIV-1 Env of pseudovirus X2131_C1_B5 (HIV-1)
[32] = target: HIV-1 Env of pseudovirus 6952.v1.c20 (HIV-1)
[33] = target: HIV-1 Env of pseudovirus C1080.c03 (HIV-1)
[34] = target: HIV-1 Env of pseudovirus BF1266.431a (HIV-1)
[35] = target: HIV-1 Env of pseudovirus 3301.v1.c24 (HIV-1)
[36] = target: HIV-1 Env of pseudovirus Ce0682_E4 (HIV-1)
[37] = target: HIV-1 Env of pseudovirus T251-18 (HIV-1)

Substance: 8ANC195 (antibody)
- neutralization IC50 [1]: 0.26 µg/mL
- neutralization IC80 [1]: 1.2 µg/mL
- IC50, titer in TZM.bl cells [2]: 0.14 µg/mL
- IC80, titer in TZM.bl cells [2]: 1.15 µg/mL
- neutralization IC50 [3]: 0.29 µg/mL
- neutralization IC80 [3]: 4.67 µg/mL
- neutralization IC50 [4]: > 50 µg/mL
- neutralization IC80 [4]: > 50 µg/mL
- IC50, titer in TZM.bl cells [5]: 26.9 µg/mL
- IC80, titer in TZM.bl cells [5]: > 50 µg/mL
- IC50, titer in TZM.bl cells [6]: 0.09 µg/mL
- IC80, titer in TZM.bl cells [6]: 13 µg/mL
- neutralization IC50 [7]: > 50 µg/mL
- neutralization IC80 [7]: > 50 µg/mL
- IC50, titer in TZM.bl cells [8]: 0.48 µg/mL
- IC80, titer in TZM.bl cells [8]: 3.54 µg/mL
- neutralization IC50 [9]: 15.3 µg/mL
- neutralization IC80 [9]: > 50 µg/mL
- neutralization IC50 [10]: 6.77 µg/mL
- neutralization IC80 [10]: > 50 µg/mL
- neutralization IC50 [11]: > 50 µg/mL
- neutralization IC80 [11]: > 50 µg/mL
- neutralization IC50 [12]: 4.42 µg/mL
- neutralization IC80 [12]: 19.1 µg/mL
- neutralization IC50 [13]: > 30 µg/mL
- neutralization IC80 [13]: > 30 µg/mL
- neutralization IC50 [14]: > 50 µg/mL
- neutralization IC80 [14]: > 50 µg/mL
- neutralization IC50 [15]: 0.19 µg/mL
- neutralization IC80 [15]: 1.17 µg/mL
- IC50, titer in TZM.bl cells [16]: 4.96 µg/mL
- IC80, titer in TZM.bl cells [16]: > 50 µg/mL
- neutralization IC50 [17]: 0.29 µg/mL
- neutralization IC80 [17]: 1.73 µg/mL
- IC50, titer in TZM.bl cells [18]: 0.97 µg/mL
- IC80, titer in TZM.bl cells [18]: 4.3 µg/mL
- neutralization IC50 [19]: > 50 µg/mL
- neutralization IC80 [19]: > 50 µg/mL
- IC50, titer in TZM.bl cells [20]: 5.34 µg/mL
- IC80, titer in TZM.bl cells [20]: 27.6 µg/mL
- neutralization IC50 [21]: 0.17 µg/mL
- neutralization IC80 [21]: 0.81 µg/mL
- IC50, titer in TZM.bl cells [22]: 2.36 µg/mL
- IC80, titer in TZM.bl cells [22]: 2.36 µg/mL
- neutralization IC50 [23]: > 50 µg/mL
- neutralization IC80 [23]: > 50 µg/mL
- neutralization IC50 [24]: 23.4 µg/mL
- neutralization IC80 [24]: > 50 µg/mL
- neutralization IC50 [25]: > 50 µg/mL
- neutralization IC80 [25]: > 50 µg/mL
- neutralization IC50 [26]: > 30 µg/mL
- neutralization IC80 [26]: > 30 µg/mL
- IC50, titer in TZM.bl cells [27]: > 50 µg/mL
- IC80, titer in TZM.bl cells [27]: > 50 µg/mL
- IC50, titer in TZM.bl cells [28]: 0.16 µg/mL
- IC80, titer in TZM.bl cells [28]: 1.13 µg/mL
- neutralization IC50 [29]: > 30 µg/mL
- neutralization IC80 [29]: > 30 µg/mL
- neutralization IC50 [30]: > 50 µg/mL
- neutralization IC80 [30]: > 50 µg/mL
- IC50, titer in TZM.bl cells [31]: 3.47 µg/mL
- IC80, titer in TZM.bl cells [31]: > 50 µg/mL
- IC50, titer in TZM.bl cells [32]: 1.38 µg/mL
- IC80, titer in TZM.bl cells [32]: 7.22 µg/mL
- IC50, titer in TZM.bl cells [33]: 0.17 µg/mL
- IC80, titer in TZM.bl cells [33]: 1.12 µg/mL
- neutralization IC50 [34]: > 50 µg/mL
- neutralization IC80 [34]: > 50 µg/mL
- IC50, titer in TZM.bl cells [35]: > 50 µg/mL
- IC80, titer in TZM.bl cells [35]: > 50 µg/mL
- neutralization IC50 [36]: 0.2 µg/mL
- neutralization IC80 [36]: 1.29 µg/mL

Substance: N49P7.2 (antibody)
- IC50 [37]: 0.222 µg/mL
- IC80 [37]: 0.741 µg/mL
- MPI [37]: 100
- IC50 [2]: 0.258 µg/mL
- IC80 [2]: 0.716 µg/mL
- MPI [2]: 100
- IC50 [5]: > 50 µg/mL
- IC80 [5]: > 50 µg/mL
- MPI [5]: 4
- IC50 [6]: 0.02 µg/mL
- IC80 [6]: 0.047 µg/mL
- MPI [6]: 100
- IC50 [8]: 0.162 µg/mL
- IC80 [8]: 0.727 µg/mL
- MPI [8]: 100
- IC50 [16]: 0.102 µg/mL
- IC80 [16]: 0.831 µg/mL
- MPI [16]: 100
- IC50 [18]: 0.289 µg/mL
- IC80 [18]: 1.26 µg/mL
- MPI [18]: 100
- IC50 [20]: 0.541 µg/mL
- IC80 [20]: 2.55 µg/mL
- MPI [20]: 100
- IC50 [21]: 0.266 µg/mL
- IC80 [21]: 1.62 µg/mL
- MPI [21]: 100
- IC50 [22]: 0.316 µg/mL
- IC80 [22]: 1.06 µg/mL
- MPI [22]: 100
- IC50 [27]: 0.047 µg/mL
- IC80 [27]: 0.154 µg/mL
- MPI [27]: 100
- IC50 [28]: 0.098 µg/mL
- IC80 [28]: 0.371 µg/mL
- MPI [28]: 100
- IC50 [29]: 0.066 µg/mL
- IC80 [29]: 0.267 µg/mL
- MPI [29]: 100
- IC50 [31]: 0.161 µg/mL
- IC80 [31]: 0.671 µg/mL
- MPI [31]: 100
- IC50 [32]: > 50 µg/mL
- IC80 [32]: > 50 µg/mL
- MPI [32]: 0
- IC50 [33]: 0.279 µg/mL
- IC80 [33]: 1.76 µg/mL
- MPI [33]: 100
- IC50 [35]: 0.05 µg/mL
- IC80 [35]: 0.137 µg/mL
- MPI [35]: 100
